Assays:
[1] = biological target: T1, γ-H2AX (histone H2AX phosphorylated at serine 139) in drug-treated H1299 or U2OS cells or their extracts (human, UniProt P16104 1-143, phosphorylation of serine at position 139 (S139)); assay: mCherry fluorescence in transfected H1299 cells after CSK wash
T1 construct: Endogenous nuclear protein of H1299 and U2OS cells (fixed, living, or nuclear/histone extracts), not on the cell surface; also called gammaH2AX; γ-H2AX foci
Protocol: Thus, despite their solubility in mammalian cells, these reagents cannot be transfected into cells to detect with precision γ-H2AX after drug treatment likely due to too high chromobody expression levels.
For the analysis by classical immunofluorescence microscopy, the transfected or transduced cells were fixed with 4% paraformaldehyde for 20 minutes and, after permeabilization with 0.2% Triton X100 for 5 min, they were incubated with mAb 3F4 or VHH preparations diluted in PBS containing either 10% fetal calf serum or 2% BSA. Where indicated, the cells were treated with CSK-100 modified buffer (100 mM NaCl, 300 mM sucrose, 3 mM MgCl₂, 10 mM HEPES pH 6.8, 1 mM EGTA, and 0.2% Triton X-100) for 5 minutes prior to fixation. […] Where indicated, Alexa 568 labelled-C6B molecules were used. The labelling of the purified bivalent C6 equipped with a cysteine residue at the C-terminus was performed essentially as previously described (Shaner, N.C. et al.; Nat. Biotechnol. 2004, 22, 1567-1572). Briefly, purified protein in 0.1 M KH₂PO₄ pH 6.5, 150 mM NaCl, 1 mM EDTA, 250 mM sucrose was mixed with a 1.2 molar amount of Alexa Fluor 568 maleimide derivative (ThermoFisher Scientific). […] The amount of fluorophore per bivalent C6 in the flow-through was calculated by spectrophotometry with a Nanodrop 2000 device (ThermoFisher Scientific). […] The signal was recorded with a Leica DFC350FX camera. […]

γ-H2AX in H1299 cells = biological target: T2, γ-H2AX in H1299 cells (Homo sapiens, UniProt P16104); assay: Chromobody expression by transient transfection in H1299 cells with CSK buffer wash prior to fixation; format: cell-based; conditions: transfected H1299 cells
T2 construct: endogenous in cells; host or cells: H1299
Source text: The pβA-scFv-eGFP, a derivative of pDRIVE-hβ-actin (Rinaldi, A.-S. et al.; Exp. Cell Res. 2013, 319, 838-849, doi:10.1016/j.yexcr.2013.01.011) was modified by PCR to insert in frame to the scFv the E6 tag and the mCherry protein using E6T-HindIII-For/E6T-HindIII-Rev and mCherry-For/mCherry-Rev primer pairs, respectively. This vector which carries unique NcoI and SpeI restriction sites was used to sub-clone the VHH variants as described above, thereby generating pβA-C6-E6T-mCherry, pβA-C6M-E6T-mCherry, pβA-C6B-E6T-mCherry and pβA-C6BM-E6T-mCherry.
The day before transfection, 8×10^4 cells were plated in 12-well culture plates containing glass coverslips. […]
For the analysis by classical immunofluorescence microscopy, the transfected or transduced cells were fixed with 4% paraformaldehyde for 20 minutes and, after permeabilization with 0.2% Triton X100 for 5 min, they were incubated with mAb 3F4 or VHH preparations diluted in PBS containing either 10% fetal calf serum or 2% BSA. […] The amount of fluorophore per bivalent C6 in the flow-through was calculated by spectrophotometry with a Nanodrop 2000 device (ThermoFisher Scientific). […] The signal was recorded with a Leica DFC350FX camera. […] For the measurement of the nuclear fluorescence intensity, the images of microscopy fields were acquired with the 20× objective. […]

Molecule	binding result [1]	nuclear chromobody signal after CSK treatment (γ-H2AX in H1299 cells)	nuclear chromobody signal after CSK treatment (γ-H2AX in H1299 cells; listed as C6 chromobody)
C6-mCherry chromobody (expressed in transfected H1299 cells) (other, not shown: small tags and cut ends, Expressed under the β-actin promoter from pβA-C6-E6T-mCherry; junctions not spelled out; also called C6 chromobody; C6 nanobody-mCherry) VHH: MADVQLVESGGGLVQAGDSLRLSCAASGLTFSRYAMGWFRQAPGNEREFVAVITASGRTTLYADSVKGRFTISRDNAKNTVALQMQSLKPEDTAVYYCAADYGTSRYTRRQSEYEYWGQGTQVTVSSAAA	no binding	–	–
C6-mCherry: C6 coding region fused in frame to mCherry, expressed by transfection (protein, left off: small tags and cut ends, C6 coding region fused in frame to mCherry, expressed by transfection) VHH: MADVQLVESGGGLVQAGDSLRLSCAASGLTFSRYAMGWFRQAPGNEREFVAVITASGRTTLYADSVKGRFTISRDNAKNTVALQMQSLKPEDTAVYYCAADYGTSRYTRRQSEYEYWGQGTQVTVSSAAA	–	entirely washed off	lost in both drug-treated and untreated cells
